Among the data in article doi:10.1101/2025.09.29.679187 (bioRxiv, 2025) are Kd values, retold here.

In the assay the target is 6xHis-PDE6D (UniProt O43924 1-150). Nature of the assay: fluorescence polarisation.
Chain of 6xHis-PDE6D (O43924 whole entry): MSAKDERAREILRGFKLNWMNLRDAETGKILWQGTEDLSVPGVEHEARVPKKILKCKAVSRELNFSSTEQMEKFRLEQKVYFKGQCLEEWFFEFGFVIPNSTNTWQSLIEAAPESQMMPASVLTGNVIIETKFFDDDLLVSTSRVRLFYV

B1: Wild-type K-Ras peptide (FAM-KKKKKKSKTKC-Far-OMe) (peptide)
peptide: KKKKKKSKTKC
modifications: FAM on the N-terminus; C-terminal cysteine farnesylated (Far) and carboxymethylated (OMe)
One may read the Kd as the concentration at which binding is half-saturated. A high value points to weaker binding. B1 registered a Kd of 200 nM.
